Source: patent US20250340666A1 (REGENTS OF THE UNIVERSITY OF COLORADO A BODY CORPORATE, published 2025)

Key:
[1] = target: T1, CD99 epitope peptide antigen (15 amino acid sequence, SEQ ID NO: 1) (human); assay: BLI, OctetRED 384, SA biosensor
T1 construct: It was used with an SA (streptavidin) biosensor
T1 peptide: DGENDDPRPPNPPKC
Experimental: The affinity of one embodiment of the disclosed anti-CD99 antibody was tested against the CD99 epitope. Specifically, the epitope was a peptide antigen and the anti-CD99 antibody was the embodiment of 10D1-1 human IgG4/light chain1. As shown in FIG. 20. affinity was analyzed using an SA biosensor, and association and dissociation constants were monitored using OctetRED 384. […] 400 pM, 350 pM, 300 pM, 250 pM, 200 pM, 150 pM, 100 pM, 90 pM, 80 pM, 70 pM. 60 pM, 50 pM, 40 pM, 30 pM, 20 pM, or 10 pM, and less than about 1 pM, 10 pM, 50 pM, 100 pM, 200 pM, 300 pM, 400 pM, 500 pM, 600 pM. 700 pM, 800 pM, or900 pM.

human CD99 = target: T2, human CD99 (human, UniProt P14209 23-185); assay: flow cytometry on DIPG cells: pre-incubation with 10D1-CD99 antibody, then detection of CD99 with the commercial 0662 CD99 antibody (the competitor)
T2 construct: whole, on cells; Endogenous CD99 on patient-derived DIPG cells (flow cytometry) and DIPG tumor tissue sections (IHC); also called MIC2/CD99; cell surface CD99 protein
T2 sequence (looked up): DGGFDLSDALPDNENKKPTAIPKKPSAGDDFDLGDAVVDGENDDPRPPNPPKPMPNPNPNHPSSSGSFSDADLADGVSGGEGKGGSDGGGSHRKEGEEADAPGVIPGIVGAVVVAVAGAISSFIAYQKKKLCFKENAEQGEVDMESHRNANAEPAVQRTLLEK
Experimental: The engagement/binding of the presently disclosed 10D1-CD99 antibody to the human CD99 epitope was tested.

B1: 10D1-CD99 antibody (antibody, V domains shown)
VH: EVQLQQSGPELVKPGASVKISCKASGYSFTGYYMHWVKQSHVKSLEWIGRINPYTGATTYNQIFKDKATLTLDKSSSTAYMELHSLTSEDSAIFYCARYYYGNNYNVYLDYWGQGTTLTVSS
VL: DIQLTQTTSSLSASLGDRVTISCSASQGISNYLSWYQQKPDGTFKLLIYYTSTLHSGVPSRFSGSGSGTDYSLTISNLEPEDIATYYCQQYSNLPWTFGGGTRLEIK
notes: also called rh10D1 anti-CD99 antibody; rh10D1-CD99
Kd [1]: 0.436 nM
koff [1]: 0.000744 s⁻¹
kon [1]: ~1.71e+06 M⁻¹ s⁻¹
binding result (human CD99): binds
